Here are results for one molecule from US20240117073A1, “METHODS OF TREATING NEOPLASTIC ASTROCYTOMA” (Ludwig Institute for Cancer Research Ltd., priority 2009, published 2024).

“Also recorded” adds a separate entry of the source.

Assay [1] concerns U87MG.DK cells. Nature of the assay: FACS binding to cell lines. The format is cell-based, human. The protocol: Stained cells were analyzed with a FACS Calibur™ using Cell Quest™ software (Becton-Dickinson PharMingen). […] 1. Mouse IgG2a or IgG2b was used as an isotype control.
(In general: In flow cytometry, cells or beads pass a laser one at a time.)

The subject of assay [2] is MDA-468 breast cancer cell line. Nature of the assay: FACS binding to cell lines. It is filed as cell-based, human.
The subject of assay [3] is U87MG expressing wild-type EGFR. The experiment in a line: protein A mixed hemadsorption. The format is cell-based, human. Particulars: undiluted supernatant less than 10%. How it is done: As expected, the 528 antibody stained both the U87MG.Δ2-7 and U87MG.wtEGFR cell lines (FIG. 1). As expected, the 528 antibody stained U87MG.Δ2-7 with a higher intensity than the parental cell as it binds both the de2-7 and wild-type receptors that are co-expressed in these cells (FIG. 1). Similar results were obtained using a protein A mixed hemadsorption which detects surface bound IgG by appearance of […] (group O) to target cells.

For assay [4], the target named is T1, sEGFR (recombinant extracellular domain, amino acids 1-621, of the wild-type EGFR) (Homo sapiens, UniProt P00533).
T1 construct: sEGFR is the recombinant extracellular domain (amino acids 1-621) of the wild-type EGFR; host or cells: CHO cells
The experiment in a line: ELISA on sEGFR coated plates. It is filed as binding. How it is done: Two types of ELISA were used to determine the specificity of the antibodies. […] Growth Factors. 18, 11-29). Antibodies were added to wells in triplicate at increasing concentration in 2% HSA in phosphate-buffered saline (PBS).
A general note: ELISA stands for enzyme-linked immunosorbent assay.

For assay [5], the target named is T2, junction peptide (Homo sapiens, UniProt P00533, DELINS30-297G).
T2 construct: purchased Biosource, Camarillo, CA; host or cells: synthetic
The experiment in a line: dot-blot immune stain. It is filed as binding. How it is done:
Dot-blot immune stain experiments were also performed. Serial dilutions of peptide were spotted in 0.5 μl onto a PVDF or nitrocellulose membranes. […] Control antibodies were also negative for peptide binding.

Assay [6] addresses T3, wtEGFR (Homo sapiens, UniProt P00533).
T3 construct: host or cells: cell lysates
Nature of the assay: immunoblotting of cell lysates. It is filed as binding. (In western blotting, separated proteins are transferred to a membrane and probed.)

The subject of assay [7] is U87MG xenografts. The experiment in a line: established xenograft model. The format is in vivo, nude mice. The settings on record: 1 mg per injection. How it is done:
Tumor cells (3×10^6) in […] of PBS were inoculated subcutaneously into both flanks of 4-6 week old female nude mice (Animal Research Centre, Western Australia, Australia). […] Treatment was continued for a total of 6 doses, 3 times per week for 2 weeks. In the established model, treatment was started when tumors had reached a mean volume of 65±6.42 mm^3 (U87MG.Δ2-7), 84±9.07 mm^3 (U87MG), 73±7.5 mm^3 (U87MG.wtEGFR) or 201±19.09 mm^3 (A431 tumors). Tumor volume in mm^3 was determined using the formula (length×width^2)/2, where length was the longest axis and width the measurement at right angles to the length (Clark et al. (2000) Therapeutic efficacy of anti-Lewis (y) humanized 3S 193 radioimmunotherapy in a breast cancer model: enhanced activity when combined with Taxol chemotherapy. Clin. Cancer Res. 6, 3621-3628). Data was expressed as mean tumor volume±S.E. for each treatment group. Statistical analysis was performed at given time points using Student's t-test. Animals were euthanized when the xenografts reached an approximate volume of 1.5 cm^3 and the tumors excised for histological examination. This research project was approved by the Animal Ethics Committee of the Austin and Repatriation Medical Centre. […]

The test system of assay [8] is normal tissues. The experiment in a line: immunohistochemistry of normal tissue. Set-up: species or system human. How it is done:
Immunohistochemical analysis was performed using […] sections of fresh frozen tissue applied to histology slides and fixed for 10 minutes in cold acetone. Bound primary antibody was detected with biotinylated horse anti-mouse antibody followed by an avidin-biotin-complex reaction. Diaminobenzidine tetra hydrochloride (DAB) was used as chromogen. The extent of the immunohistochemical reactivity in tissues was estimated by light microscopy and graded according to the number of immunoreactive cells in 25% increments as follows: • Focal=less than 5% • +=5-25% • ++=25-50% • +++=50-75% • ++++=>75%
There was some variable staining present in tonsils with mAb806 that was restricted to the basal cell layer of the epidermis and mucosal squamous cells of the epithelium. In placenta, occasional immunostaining of the trophoblast epithelium was observed. […] All tissues were positive for the wtEGFR as evidenced by the universal staining seen with the 528 antibody (Table 3).

Assay [9] has as its system U87MG.DK brain xenografts. Nature of the assay: systemic treatment of intracranial xenografts. Set-up: species or system nude mice. The settings on record: mouse, in vivo.
Procedure: U87MG.ΔEGFR cells (1×10^5) or 5×10^5 LN-Z308.ΔEGFR, A1207.ΔEGFR, U87MG, U87MG.DK, and U87MG.wtEGFR cells in 5 μl of PBS were implanted into the right corpus stratum of nude mice brains as described previously (Mishima et al. (2000) A peptide derived from the non-receptor binding region of urokinase plasminogen activator inhibits glioblastoma growth and angiogenesis in vivo in combination with cisplatin. Proc. Natl. Acad. Sci. U.S.A. 97, 8484-8489).
Assay [10] deals with T4, de2-7 EGFR and wtEGFR (Homo sapiens, UniProt P00533, DELINS30-297G).
T4 construct: expressed in transfected cells; host or cells: NR6ΔEGFR and U87MG.ΔEGFR/U87MG.Δ2-7 (transfected ΔEGFR); U87MG.wtEGFR (transfected wtEGFR); U87MG and A431 (endogenous wtEGFR)
The experiment in a line: immunoprecipitation from 35S-labeled cells. It is filed as binding. The protocol: Briefly, cells were labeled for 16 h with […] of Tran ^35S-Label (ICN Biomedicals, Irvine, CA) in DMEM without methionine/cysteine supplemented with 5% dialyzed FCS. After washing with PBS, cells were placed in lysis buffer (1% Triton X-100, 30 mM HEPES, 150 mM NaCl, 500 μM 4-(2-aminoethyl) benzenesulfonylfluoride (AEBSF), 150 nM aprotinin, 1 μM E-64 protease inhibitor, 0.5 mM EDTA, and 1 μM leupeptin, pH 7.4) for 1 h at 4° C. Lysates were clarified by centrifugation for 10 min at 12,000 g and then incubated with 5 μg of appropriate antibody for 30 min at 4° C. before the addition of Protein A-Sepharose. Immunoprecipitates were washed three times with lysis buffer, mixed with SDS sample buffer, separated by gel electrophoresis using a 4-20% Tris/glycine gel that was then dried, and exposed to X-ray film.

Assay [11] concerns the target T5, denatured soluble domain of the EGFR (sEGFR) (Homo sapiens, UniProt P00533).
T5 construct: sEGFR is the recombinant extracellular domain (amino acids 1-621) of the wild-type EGFR; made in house; host or cells: CHO cells
Nature of the assay: competition ELISA. It is filed as binding. Particulars: after unlabeled blocking antibody. How it is done: Briefly, the denatured soluble domain of the EGFR (sEGFR) was coated on to ELISA plates. The unlabeled 124 or 1133 antibodies were then added across the plate in increasing concentrations.

B1: mAb806: murine monoclonal antibody recognizing de2-7 EGFR and amplified EGFR; VH SEQ ID NO:2, VL SEQ ID NO:4 (antibody, listed as Mus musculus, V domains shown)
VH: MRVLILLWLFTAFPGVLSDVQLQESGPSLVKPSQSLSLTCTVTGYSITSDFAWNWIRQFPGNKLEWMGYISYSGNTRYNPSLKSRISITRDTSKNQFFLQLNSVTIEDTATYYCVTAGRGFPYWGQGTLVTVSA
VL: MVSTAQFLAFLLLWFPGARCDILMTQSPSSMSVSLGDTVSITCHSSQDINSNIGWLQQRPGKSFKGLIYHGTNLDDEVPSRFSGSGSGADYSLTISSLESEDFADYYCVQYAQFPWTFGGGTKLEIKR
In the case of B1, the FACS staining entry was “reacted intensely” in [1] and “clearly stained both cell lines but at a lower level” in assay [2]. Further, the reactivity result is on record as “no significant reactivity” in assay [3], “− occ. weak reactivity” in assay [8] (Skin) and “− occ. weak reactivity” in [8] (Tonsil). In addition, the “inhibition of antibody binding to immobilized sEGFR by sEGFR in solution” value in assay [4] is given as “unable to inhibit”. In addition, the “binding to immobilized wild-type sEGFR” value in assay [4] (DH8.3 up to 10 μg/ml) is “dose-dependent and saturating binding curves”. Further, the “inhibition of antibody binding to immobilized sEGFR by denatured sEGFR in solution” value in [4] (sEGFR heated 10 min at 95° C.) was “able to inhibit”. Besides, the “binding to peptide on membranes” value in assay [5] is “did not bind peptide”. Moreover, the reactivity after immunoblotting result in [6] was “bound to the wtEGFR”. Further, the “effect on xenograft growth” value in assay [7] was “no effect”. Besides, the effect on survival result in assay [9] was “did not extend survival”. In addition, the “immunoprecipitated EGFR bands” value in [10] was “immunoprecipitated the two de2-7 EGFR bands, the wtEGFR was completely absent; also recorded: immunoprecipitated a single band corresponding to the wtEGFR from both U87MG.wtEGFR and A431 cells”. The “Binding of biotin-labeled 806” value in assay [11] is given as “None”.
